Laboratory results as given in patent US10155047B2, “Polymers having therapeutically active agents conjugated thereto, processes of preparing same and uses thereof” (Ramot at Tel-Aviv University Ltd., priority 2012, dated 2018).
Ends that are not written are not given here.

Assays:
[1] = Zeta potential of conjugates; assay type: physicochemical; settings: Table 13
[2] = system: HUVECs; assay: Capillary-like tube formation assay of HUVECs; assay type: cell-based, human; settings: PTX-equivalent concentrations of 80 nM
Procedure: The surface of 24-well plates is coated with Cultrex® basement membrane (50 μl/well; 10 mg/ml) on ice and then allowed to polymerize at 37° C. for 30 minutes. HUVECs (3×10^4) are seeded on coated plates in the presence of conditioned media of tumor cells treated with the conjugate and its controls. After 8 hours of incubation (37° C.; 5% CO2), wells are imaged using bright-field technique (Nikon TE2000E inverted microscope integrated with Nikon DS5 cooled CCD camera by 4× objective).
The effect of the PGA-PTX-DOX conjugate (Route 1, see, FIG. 18) on capillary-like tube formation of HUVECs was tested and compared to that of the free drugs, each alone and in combination, to that of PGA alone and to that of a PGA-PTX conjugate.
The effect of PGA, free PTX (80 nM), free C3, the conjugate PGA-C3, and the conjugates PGA-PTX and PGA-PTX-C3, at PTX-equivalent concentrations of 80 nM, on capillary-like tube formation of human umbilical vein endothelial cells (HUVEC) was evaluated, in order to confirm that anti-angiogenic properties of PTX are maintained after conjugation.

[3] = Conjugate size by DLS analysis; assay type: physicochemical; settings: estimated from DLS analysis
From the text: Based on DLS analysis, it is estimated that the conjugate is 10 nm in size, which is a suitable size for selective distribution by the EPR effect.

[4] = system: ES-2 cells; assay: ES-2 proliferation after 7 minutes treatment, wash and 72 hours in medium; assay type: cell-based, human; settings: wash
Procedure: The effect of PGA, free PTX and the conjugates PGA-PTX, PGA-C3, and PGA-PTX-C3 on proliferation of ES-2 cells was evaluated after incubation of the cells with each treatment for 7 minutes, washing the cells and incubation in medium for 72 hours.
Short incubation time was selected since in the usual 72-hour incubation time, both the targeted and non-targeted conjugates would have had sufficient time to internalize into the cells. Under these experiment conditions, only the targeted conjugate remained bound to the cells, while non-targeted polymers or conjugates washed off, resulting in lower efficacy.

Substance: PGA-C3-PTX: PGA having attached C3 NCAM targeting peptide (SEQ ID NO:3) and PTX (GASKKPKRNIKA; also: conjugated to polyglutamic acid (PGA) and paclitaxel, site not given here)
- Zeta potential [1]: −27.3 mV
- inhibition of capillary-like tube formation [2]: inhibited the formation of capillary-like tubes
- size of the conjugate [3]: 10 nm
- inhibition of proliferation [4]: inhibited the proliferation of ES-2 cells more than non-targeted PGA-PTX
